Our source for the C to T editing efficiency compared to unfused dCpf1 (NGS, HEK293T cells) and C to T editing rate (NGS, HEK293T cells, not sorted for transfected cells) (% of treated cell population) values is patent US20210130827A1.

Values joined by “and” are separate entries in the source; they are usually repeats but may differ in a detail not shown here. Identical values can stand only once. A value given as a limit tells only on which side of the number the result lay.

The target in the test is catalytically deactivated LbCpf1 (dLbCpf1)(dLbCas12a) with eight copies of GCN4 epitopes fused to the C-terminus (Lachnospiraceae bacterium). In words: cell-based or functional assay.

Regarding “antibody targeted toward the GCN4 epitope fused to hAPOBEC3A (scFv)”, the C to T editing efficiency compared to unfused dCpf1 (NGS, HEK293T cells) is below 5 fold; the C to T editing rate (NGS, HEK293T cells, not sorted for transfected cells) (% of treated cell population) was 7 and 19.
